Measured values from patent publication US20180188257A1 (UNIVERSITY OF ROCHESTER, published 2018).

Experiments:
p53 = target: T1, p53 (UniProt P04637 1-393, limits assumed); assay: co-immunoprecipitation from cell lysate with septin-2 pull-down antibody, western blot
T1 construct: Endogenous protein in cell lysates
Experimental: (§1) For immunoprecipitation studies, two million SKOV3 WT and OVCAR-8 cells were seeded onto 100 mm dishes (Corning) and cultured to 80% confluency in complete DMEM media. Cells were rinsed in DPBS (Gibco), lysed, and quantified using Bradford assay. Lysates were adjusted to 1 μg/μl total protein concentration, with 500 μl lysate used for each IP reaction. Identical samples were prepared for pull-down antibody (Septin-2 or HE4) and isotype-matched IgG control (#3900, Cell Signaling), with antibody concentration identical at 40 ng/μl. Further processing and PAGE analysis of samples was conducted to resolve the bands. The resulting membranes were probed for HE4 or Septin-2, p21 or P53, B-tubulin and other proteins of interest.

β-tubulin = target: T2, β-tubulin (UniProt P07437 1-444); assay: as above
T2 construct: Endogenous protein in cell lysates; also called B-tubulin
Experimental: as §1

T1 sequence (P04637 whole entry): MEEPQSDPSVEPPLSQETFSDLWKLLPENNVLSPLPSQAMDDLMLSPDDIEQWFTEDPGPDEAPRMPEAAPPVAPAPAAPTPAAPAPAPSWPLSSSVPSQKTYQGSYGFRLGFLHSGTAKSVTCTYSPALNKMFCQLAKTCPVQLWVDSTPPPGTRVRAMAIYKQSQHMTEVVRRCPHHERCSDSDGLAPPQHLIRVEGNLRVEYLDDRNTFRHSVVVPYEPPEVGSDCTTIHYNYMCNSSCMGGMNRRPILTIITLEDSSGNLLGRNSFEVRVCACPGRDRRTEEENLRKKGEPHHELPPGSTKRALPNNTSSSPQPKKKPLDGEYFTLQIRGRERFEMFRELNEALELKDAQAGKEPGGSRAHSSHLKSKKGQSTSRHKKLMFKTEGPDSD
T2 sequence (P07437 whole entry): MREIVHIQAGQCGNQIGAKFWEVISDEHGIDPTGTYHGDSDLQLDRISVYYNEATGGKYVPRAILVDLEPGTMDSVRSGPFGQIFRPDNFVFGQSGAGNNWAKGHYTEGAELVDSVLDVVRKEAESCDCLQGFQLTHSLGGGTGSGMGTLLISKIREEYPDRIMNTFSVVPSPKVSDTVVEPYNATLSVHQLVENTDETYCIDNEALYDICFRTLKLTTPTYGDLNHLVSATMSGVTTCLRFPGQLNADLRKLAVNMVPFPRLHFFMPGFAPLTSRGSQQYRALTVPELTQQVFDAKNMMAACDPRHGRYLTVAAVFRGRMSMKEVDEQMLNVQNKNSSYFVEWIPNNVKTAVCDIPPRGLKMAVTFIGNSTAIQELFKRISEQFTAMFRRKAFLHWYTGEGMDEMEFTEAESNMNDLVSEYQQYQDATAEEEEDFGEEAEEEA

B1: septin-2 (other)
chain: MSKQQPTQFINPETPGYVGFANLPNQVHRKSVKKGFEFTLMVVGESGLGKSTLINSLFLTDLYPERVIPGAAEKIERTVQIEASTVEIEERGVKLRLTVVDTPGYGDAINCRDCFKTIISYIDEQFERYLHDESGLNRRHIIDNRVHCCFYFISPFGHGLKPLDVAFMKAIHNKVNIVPVIAKADTLTLKERERLKKRILDEIEEHNIKIYHLPDAESDEDEDFKEQTRLLKASIPFSVVGSNQLIEAKGKKVRGRLYPWGVVEVENPEHNDFLKLRTMLITHMQDLQEVTQDLHYENFRSERLKRGGRKVENEDMNKDQILLEKEAELRRMQEMIARMQAQMQMQMQGGDGDGGALGHHV
notes: Endogenous protein in lysates of the ovarian cancer cell lines SKOV3 WT and OVCAR-8, pulled down with a septin-2 antibody
binding result (p53): no binding | binding result (β-tubulin): no binding
